Results from PMC10786891, “Massively parallel profiling of RNA-targeting CRISPR-Cas13d”.
Positions count from the first letter of the chain named. In names and notes the source's numbering stands.

B1: target 1 insU 3' of 17,insG 3' of 6 (mixed)
RNA 1: CACCCGUGCAAAAAUGCAGGGGUCUAAAACUGAGCGGAUAACCUCUCUAUGG
RNA 2: GGGAAUGGAUCCACAUCUACGAAUUCGUACCAUAGUAGAGGUUAUCCGGCUCACCGAGAUCGGAAGAGCACACGU
B2: target 1 complement block 2-5 (mixed)
RNA 1: B1 RNA 1
RNA 2: GGGAAUGGAUCCACAUCUACGAAUUCGUACCAUAGAGAGGUUAUCCCGAGACCGAGAUCGGAAGAGCACACGU
B3: target 1 insG 3' of 8,insG 3' of 4 (mixed)
RNA 1: B1 RNA 1
RNA 2: GGGAAUGGAUCCACAUCUACGAAUUCGUACCAUAGAGAGGUUAUGCCGCGUCACCGAGAUCGGAAGAGCACACGU
B4: target 1 insG 3' of 16,insU 3' of 6 (mixed)
RNA 1: B1 RNA 1
RNA 2: B1 RNA 2 with U36A, A37G, G48U
B5: target 1 insU 3' of 14,insC 3' of 8 (mixed)
RNA 1: B1 RNA 1
RNA 2: B1 RNA 2 with U36A, A37G, G38A, A39U, G48C
B6: target 1 G5A,A9C (mixed)
RNA 1: B1 RNA 1
RNA 2: B2 RNA 2 with A43C, C47A, G48C, A49U, G50C
B7: target 1 insG 3' of 16,insA 3' of 2 (mixed)
RNA 1: B1 RNA 1
RNA 2: B1 RNA 2 with U36A, A37G, G49C, C50U, U51C, C52A
B8: target 1 insA 3' of 17,insU 3' of 17 (mixed)
RNA 1: B1 RNA 1
RNA 2: GGGAAUGGAUCCACAUCUACGAAUUCGUACCAUAGAUAGAGGUUAUCCGCUCACCGAGAUCGGAAGAGCACACGU
B9: target 1 insC 3' of 9 (mixed)
RNA 1: B1 RNA 1
RNA 2: GGGAAUGGAUCCACAUCUACGAAUUCGUACCAUAGAGAGGUUACUCCGCUCACCGAGAUCGGAAGAGCACACGU
B10: target 1 G5U,U8C (mixed)
RNA 1: B1 RNA 1
RNA 2: B2 RNA 2 with U44C, C47U, G48C, A49U, G50C
B11: target 1 insA 3' of 19,insC 3' of 18 (mixed)
RNA 1: B1 RNA 1
RNA 2: B8 RNA 2 with G35A, A36C, U37G
B12: target 1 insC 3' of 3 (mixed)
RNA 1: B1 RNA 1
RNA 2: B9 RNA 2 with C44U, U45C, C47G, G48C, C49U, U50C
B13: target 1 insA 3' of 17,insC 3' of 15 (mixed)
RNA 1: B1 RNA 1
RNA 2: B8 RNA 2 with U37A, A38G, G39C
B14: target 1 C2A,U3C (mixed)
RNA 1: B1 RNA 1
RNA 2: B2 RNA 2 with C47G, G48C, A49C, G50A
B15: target 1 insG 3' of 4,insC 3' of 3 (mixed)
RNA 1: B1 RNA 1
RNA 2: B3 RNA 2 with G45C, C47G, G48C, C49G, G50U, U51C
B16: target 1 U3G,U11C (mixed)
RNA 1: B1 RNA 1
RNA 2: B2 RNA 2 with U41C, C47G, G48C, A49G, G50C
B17: target 1 insA 3' of 6,insG 3' of 2 (mixed)
RNA 1: B1 RNA 1
RNA 2: B3 RNA 2 with G45C, C47A, G50U, U51C, C52G
B18: target 1 insC 3' of 5,insA 3' of 4 (mixed)
RNA 1: B1 RNA 1
RNA 2: B3 RNA 2 with G45C, C47G, G48C, G50A
B19: target 1 insG 3' of 14,insG 3' of 2 (mixed)
RNA 1: B1 RNA 1
RNA 2: B3 RNA 2 with U41G, A43U, U44A, G45U, G50U, U51C, C52G
B20: target 1 insG 3' of 16,insG 3' of 1 (mixed)
RNA 1: B1 RNA 1
RNA 2: B1 RNA 2 with U36A, A37G, G49C, C50U, U51C, C52A, A53G
B21: target 1 G5A,U11A (mixed)
RNA 1: B1 RNA 1
RNA 2: B2 RNA 2 with U41A, C47A, G48C, A49U, G50C
B22: target 1 insA 3' of 11,insG 3' of 10 (mixed)
RNA 1: B1 RNA 1
RNA 2: B8 RNA 2 with U37G, A40G, G41U, G42A, U44G
B23: target 1 U11C,A16G (mixed)
RNA 1: B1 RNA 1
RNA 2: B2 RNA 2 with A36G, U41C, C47G, G48C, A49U, G50C
B24: target 1 A20C,C22G (mixed)
RNA 1: B1 RNA 1
RNA 2: B2 RNA 2 with C30G, A32C, C47G, G48C, A49U, G50C
B25: target 1 insA 3' of 11,insC 3' of 11 (mixed)
RNA 1: B1 RNA 1
RNA 2: B8 RNA 2 with U37G, A40G, G41U, G42A, U43C
B26: target 1 insC 3' of 20,insG 3' of 10 (mixed)
RNA 1: B1 RNA 1
RNA 2: B1 RNA 2 with U33C, A34U, G35A, U36G, A44G, U45A, C46U, G48C
B27: target 1 A1C,U11G (mixed)
RNA 1: B1 RNA 1
RNA 2: B2 RNA 2 with U41G, C47G, G48C, A49U, G50C, A51C
B28: target 1 insG 3' of 21,insA 3' of 15 (mixed)
RNA 1: B1 RNA 1
RNA 2: B8 RNA 2 with A32G, U33A, A34U, G35A, A36G, U37A, A38G, G39A
B29: target 1 insC 3' of 8,insU 3' of 5 (mixed)
RNA 1: B1 RNA 1
RNA 2: B3 RNA 2 with G45C, C49U, G50C
B30: target 1 insU 3' of 12,insU 3' of 5 (mixed)
RNA 1: B1 RNA 1
RNA 2: B3 RNA 2 with A43U, U44A, G45U, C49U, G50C
B31: target 1 insC 3' of 14,insU 3' of 2 (mixed)
RNA 1: B1 RNA 1
RNA 2: B3 RNA 2 with G39C, U41G, A43U, U44A, G45U, G50U, U51C, C52U
B32: target 1 insG 3' of 16,insC 3' of 1 (mixed)
RNA 1: B1 RNA 1
RNA 2: B1 RNA 2 with U36A, A37G, G49C, C50U, U51C, C52A, A53C
B33: target 1 insU 3' of 22,insA 3' of 21 (mixed)
RNA 1: B1 RNA 1
RNA 2: B8 RNA 2 with C31U, A32C, U33A, G35U, U37G

Molecular target: T1, EsCas13d, nuclease-dead (Eubacterium siraeum, UniProt B0MS50, R295A;H300A;R849A;H854A)
T1 sequence: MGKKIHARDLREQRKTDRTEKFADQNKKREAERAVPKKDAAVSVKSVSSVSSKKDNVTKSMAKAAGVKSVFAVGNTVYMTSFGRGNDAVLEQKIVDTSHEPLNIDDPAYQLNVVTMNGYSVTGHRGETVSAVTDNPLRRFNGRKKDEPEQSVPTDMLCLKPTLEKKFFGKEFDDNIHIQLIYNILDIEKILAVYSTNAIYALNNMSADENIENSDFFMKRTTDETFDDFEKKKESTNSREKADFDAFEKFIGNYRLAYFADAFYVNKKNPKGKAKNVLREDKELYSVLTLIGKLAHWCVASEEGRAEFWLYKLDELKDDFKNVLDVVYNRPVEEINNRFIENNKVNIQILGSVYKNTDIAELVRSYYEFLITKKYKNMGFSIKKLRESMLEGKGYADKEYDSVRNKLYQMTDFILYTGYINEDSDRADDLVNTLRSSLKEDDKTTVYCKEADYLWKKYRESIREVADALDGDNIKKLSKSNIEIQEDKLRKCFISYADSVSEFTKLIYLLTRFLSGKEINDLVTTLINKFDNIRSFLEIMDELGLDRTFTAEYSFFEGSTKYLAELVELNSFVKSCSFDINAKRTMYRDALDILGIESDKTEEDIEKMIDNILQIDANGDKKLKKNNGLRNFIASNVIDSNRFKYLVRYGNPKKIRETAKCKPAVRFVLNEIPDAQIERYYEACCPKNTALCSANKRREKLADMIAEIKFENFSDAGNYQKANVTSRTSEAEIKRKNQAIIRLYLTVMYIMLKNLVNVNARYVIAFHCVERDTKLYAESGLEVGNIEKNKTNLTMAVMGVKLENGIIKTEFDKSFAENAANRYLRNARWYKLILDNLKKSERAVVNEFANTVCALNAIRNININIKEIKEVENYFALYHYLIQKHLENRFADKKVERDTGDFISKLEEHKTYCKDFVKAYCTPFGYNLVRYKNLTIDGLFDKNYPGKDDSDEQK
Assay: crRNA (strand 1, pre-loaded); Mg2+; 40 mM Tris-HCl pH 7.5, 150 mM NaCl, 6 mM MgCl2, 1 mM DTT, 0.1% Tween-20, 0.2 mg/ml BSA; 25 C; 10 min per concentration, then washed
Details: tags: His6-TwinStrep-SUMO cleaved; N-terminal SNAP kept (SNAP-Surface 488); label: 3' end held by stalled T7 RNA polymerase

Row | Binder | Kd
1 | B1 | 29 ± 5 nM
2 | B2 | 10.6 ± 0.6 nM
3 | B3 | 7.1 ± 0.4 nM
4 | B4 | 21 ± 1 nM
5 | B5 | 90 ± 40 nM
6 | B6 | 16.7 ± 1.2 nM
7 | B7 | 14.3 ± 0.9 nM
8 | B8 | 13.4 ± 1.2 nM
9 | B9 | 10.8 ± 0.4 nM
10 | B10 | 57 ± 12 nM
11 | B11 | 56 ± 5 nM
12 | B12 | 12.6 ± 0.8 nM
13 | B13 | 12.5 ± 1.4 nM
14 | B14 | 13 ± 1 nM
15 | B15 | 13.4 ± 1.1 nM
16 | B16 | 9.9 ± 0.7 nM
17 | B17 | 27 ± 5 nM

Row | Binder | Kd
18 | B18 | 13.9 ± 1.6 nM
19 | B19 | 11.8 ± 0.7 nM
20 | B20 | 13 ± 0.8 nM
21 | B21 | 54 ± 10 nM
22 | B22 | 16.5 ± 0.7 nM
23 | B23 | 80 ± 8 nM
24 | B24 | 39.2 ± 2.3 nM
25 | B25 | 12.3 ± 0.9 nM
26 | B26 | 13.4 ± 2 nM
27 | B27 | 50 ± 17 nM
28 | B28 | 37 ± 6 nM
29 | B29 | 16.1 ± 1.2 nM
30 | B30 | 11 ± 0.7 nM
31 | B31 | 59 ± 11 nM
32 | B32 | 11.9 ± 1.1 nM
33 | B33 | 66 ± 6 nM
